Numbered stars: 1 amine (or outer) side, 2 acyl side, 3 side chain; on linkers, the order of the positions; unused ones are H or OH. Square brackets hold non-standard residues; d marks the D form. Side chains are listed from the residue outwards. Ends that are not written are not given here. * marks the point of attachment. γGlu = O=C(O)[C@H](CCC(=O)[*:2])N[*:1]; Stearoyl = CCCCCCCCCCCCCCCCCC(=O)*; Palmitoyl = CCCCCCCCCCCCCCCC(=O)*; Aib = CC(C)(N)C(=O)O
T1: human GIP receptor (human, UniProt P48546 22-466)
T1 sequence (looked up): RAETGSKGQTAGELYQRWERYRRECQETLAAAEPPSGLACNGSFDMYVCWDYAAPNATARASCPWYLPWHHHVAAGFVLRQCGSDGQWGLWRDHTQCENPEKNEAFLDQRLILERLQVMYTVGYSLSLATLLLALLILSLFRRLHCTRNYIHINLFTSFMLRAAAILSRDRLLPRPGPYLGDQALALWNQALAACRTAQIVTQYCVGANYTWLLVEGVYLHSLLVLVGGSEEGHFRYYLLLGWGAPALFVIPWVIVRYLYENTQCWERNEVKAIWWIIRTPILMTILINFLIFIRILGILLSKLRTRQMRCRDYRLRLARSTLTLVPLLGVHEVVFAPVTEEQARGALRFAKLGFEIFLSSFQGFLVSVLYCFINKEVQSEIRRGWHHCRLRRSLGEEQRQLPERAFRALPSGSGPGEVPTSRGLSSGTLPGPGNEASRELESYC


Columns and labels:
Assay in all cases: cell-based or functional assay
[1] = biological target: human GLP-1 receptor (human, UniProt P43220 24-463)
[2] = biological target: human glucagon receptor (human, UniProt P47871 26-477)
[3] = biological target: T1, human GIP receptor

Sequence of human glucagon receptor (P47871 26-477): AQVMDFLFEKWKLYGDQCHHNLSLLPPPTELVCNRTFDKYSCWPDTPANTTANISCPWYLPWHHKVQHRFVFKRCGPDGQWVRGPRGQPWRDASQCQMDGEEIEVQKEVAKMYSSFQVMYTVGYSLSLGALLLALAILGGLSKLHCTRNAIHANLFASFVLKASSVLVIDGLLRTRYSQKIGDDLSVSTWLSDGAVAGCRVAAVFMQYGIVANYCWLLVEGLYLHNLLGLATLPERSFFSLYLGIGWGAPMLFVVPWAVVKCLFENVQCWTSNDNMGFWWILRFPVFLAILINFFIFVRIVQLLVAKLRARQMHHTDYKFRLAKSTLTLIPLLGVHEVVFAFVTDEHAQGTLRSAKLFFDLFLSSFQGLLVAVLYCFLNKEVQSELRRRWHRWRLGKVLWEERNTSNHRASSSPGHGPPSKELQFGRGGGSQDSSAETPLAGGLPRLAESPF

| Binder | EC50 hGLP-1R (cAMP formation) [1] [nM] | EC50 hGlucagon R (cAMP formation) [2] [nM] | EC50 hGIP R (cAMP formation) [3] [nM] |
| --- | --- | --- | --- |
| H[Aib]QGTFTSDLSKLK([γGlu-γGlu-Palmitoyl])EKQRQ[Aib]EFIEWLKAGGHPS[Aib]KPPPK-NH2 (N-terminus assumed; SMILES CCCCCCCCCCCCCCCC(=O)N[C@@H](CCC(=O)N[C@@H](CCC(=O)NCCCC[C@H](NC(=O)[C@H](CC(C)C)NC(=O)[C@H](CCCCN)NC(=O)[C@H](CO)NC(=O)[C@H](CC(C)C)NC(=O)[C@H](CC(=O)O)NC(=O)[C@H](CO)NC(=O)[C@@H](NC(=O)[C@H](Cc1ccccc1)NC(=O)[C@@H](NC(=O)CNC(=O)[C@H](CCC(N)=O)NC(=O)C(C)(C)NC(=O)[C@@H](N)Cc1c[nH]cn1)[C@@H](C)O)[C@@H](C)O)C(=O)N[C@@H](CCC(=O)O)C(=O)N[C@@H](CCCCN)C(=O)N[C@@H](CCC(N)=O)C(=O)N[C@@H](CCCNC(=N)N)C(=O)N[C@@H](CCC(N)=O)C(=O)NC(C)(C)C(=O)N[C@@H](CCC(=O)O)C(=O)N[C@@H](Cc1ccccc1)C(=O)N[C@H](C(=O)N[C@@H](CCC(=O)O)C(=O)N[C@@H](Cc1c[nH]c2ccccc12)C(=O)N[C@@H](CC(C)C)C(=O)N[C@@H](CCCCN)C(=O)N[C@@H](C)C(=O)NCC(=O)NCC(=O)N[C@@H](Cc1c[nH]cn1)C(=O)N1CCC[C@H]1C(=O)N[C@@H](CO)C(=O)NC(C)(C)C(=O)N[C@@H](CCCCN)C(=O)N1CCC[C@H]1C(=O)N1CCC[C@H]1C(=O)N1CCC[C@H]1C(=O)N[C@@H](CCCCN)C(N)=O)[C@@H](C)CC)C(=O)O)C(=O)O) [SEQ ID NO: 12] | 0.0027 | 0.022 | 0.0158 |
| H[Aib]QGTFTSDLSKLK([γGlu-Stearoyl])EKQRQ[Aib]EFIEWLKAGGPPS[Aib]KPPPK-NH2 (N-terminus assumed; SMILES CCCCCCCCCCCCCCCCCC(=O)N[C@@H](CCC(=O)NCCCC[C@H](NC(=O)[C@H](CC(C)C)NC(=O)[C@H](CCCCN)NC(=O)[C@H](CO)NC(=O)[C@H](CC(C)C)NC(=O)[C@H](CC(=O)O)NC(=O)[C@H](CO)NC(=O)[C@@H](NC(=O)[C@H](Cc1ccccc1)NC(=O)[C@@H](NC(=O)CNC(=O)[C@H](CCC(N)=O)NC(=O)C(C)(C)NC(=O)[C@@H](N)Cc1c[nH]cn1)[C@@H](C)O)[C@@H](C)O)C(=O)N[C@@H](CCC(=O)O)C(=O)N[C@@H](CCCCN)C(=O)N[C@@H](CCC(N)=O)C(=O)N[C@@H](CCCNC(=N)N)C(=O)N[C@@H](CCC(N)=O)C(=O)NC(C)(C)C(=O)N[C@@H](CCC(=O)O)C(=O)N[C@@H](Cc1ccccc1)C(=O)N[C@H](C(=O)N[C@@H](CCC(=O)O)C(=O)N[C@@H](Cc1c[nH]c2ccccc12)C(=O)N[C@@H](CC(C)C)C(=O)N[C@@H](CCCCN)C(=O)N[C@@H](C)C(=O)NCC(=O)NCC(=O)N1CCC[C@H]1C(=O)N1CCC[C@H]1C(=O)N[C@@H](CO)C(=O)NC(C)(C)C(=O)N[C@@H](CCCCN)C(=O)N1CCC[C@H]1C(=O)N1CCC[C@H]1C(=O)N1CCC[C@H]1C(=O)N[C@@H](CCCCN)C(N)=O)[C@@H](C)CC)C(=O)O) [SEQ ID NO: 15] | 0.0057 | 0.0156 | 0.0261 |
| H[Aib]QGTFTSDLSKLK([γGlu-γGlu-Palmitoyl])EKQRQ[Aib]EFIEWLKA[dA]GHPS[Aib]KPPPK-NH2 (N-terminus assumed; SMILES CCCCCCCCCCCCCCCC(=O)N[C@@H](CCC(=O)N[C@@H](CCC(=O)NCCCC[C@H](NC(=O)[C@H](CC(C)C)NC(=O)[C@H](CCCCN)NC(=O)[C@H](CO)NC(=O)[C@H](CC(C)C)NC(=O)[C@H](CC(=O)O)NC(=O)[C@H](CO)NC(=O)[C@@H](NC(=O)[C@H](Cc1ccccc1)NC(=O)[C@@H](NC(=O)CNC(=O)[C@H](CCC(N)=O)NC(=O)C(C)(C)NC(=O)[C@@H](N)Cc1c[nH]cn1)[C@@H](C)O)[C@@H](C)O)C(=O)N[C@@H](CCC(=O)O)C(=O)N[C@@H](CCCCN)C(=O)N[C@@H](CCC(N)=O)C(=O)N[C@@H](CCCNC(=N)N)C(=O)N[C@@H](CCC(N)=O)C(=O)NC(C)(C)C(=O)N[C@@H](CCC(=O)O)C(=O)N[C@@H](Cc1ccccc1)C(=O)N[C@H](C(=O)N[C@@H](CCC(=O)O)C(=O)N[C@@H](Cc1c[nH]c2ccccc12)C(=O)N[C@@H](CC(C)C)C(=O)N[C@@H](CCCCN)C(=O)N[C@@H](C)C(=O)N[C@H](C)C(=O)NCC(=O)N[C@@H](Cc1c[nH]cn1)C(=O)N1CCC[C@H]1C(=O)N[C@@H](CO)C(=O)NC(C)(C)C(=O)N[C@@H](CCCCN)C(=O)N1CCC[C@H]1C(=O)N1CCC[C@H]1C(=O)N1CCC[C@H]1C(=O)N[C@@H](CCCCN)C(N)=O)[C@@H](C)CC)C(=O)O)C(=O)O) [SEQ ID NO: 13] | 0.0038 | 0.0258 | 0.0204 |
| H[Aib]QGTFTSDLSKLK([γGlu-Palmitoyl])EKQRQ[Aib]EFIEWLKAGGPPS[Aib]KPPPK-NH2 (N-terminus assumed; SMILES CCCCCCCCCCCCCCCC(=O)N[C@@H](CCC(=O)NCCCC[C@H](NC(=O)[C@H](CC(C)C)NC(=O)[C@H](CCCCN)NC(=O)[C@H](CO)NC(=O)[C@H](CC(C)C)NC(=O)[C@H](CC(=O)O)NC(=O)[C@H](CO)NC(=O)[C@@H](NC(=O)[C@H](Cc1ccccc1)NC(=O)[C@@H](NC(=O)CNC(=O)[C@H](CCC(N)=O)NC(=O)C(C)(C)NC(=O)[C@@H](N)Cc1c[nH]cn1)[C@@H](C)O)[C@@H](C)O)C(=O)N[C@@H](CCC(=O)O)C(=O)N[C@@H](CCCCN)C(=O)N[C@@H](CCC(N)=O)C(=O)N[C@@H](CCCNC(=N)N)C(=O)N[C@@H](CCC(N)=O)C(=O)NC(C)(C)C(=O)N[C@@H](CCC(=O)O)C(=O)N[C@@H](Cc1ccccc1)C(=O)N[C@H](C(=O)N[C@@H](CCC(=O)O)C(=O)N[C@@H](Cc1c[nH]c2ccccc12)C(=O)N[C@@H](CC(C)C)C(=O)N[C@@H](CCCCN)C(=O)N[C@@H](C)C(=O)NCC(=O)NCC(=O)N1CCC[C@H]1C(=O)N1CCC[C@H]1C(=O)N[C@@H](CO)C(=O)NC(C)(C)C(=O)N[C@@H](CCCCN)C(=O)N1CCC[C@H]1C(=O)N1CCC[C@H]1C(=O)N1CCC[C@H]1C(=O)N[C@@H](CCCCN)C(N)=O)[C@@H](C)CC)C(=O)O) [SEQ ID NO: 14] | 0.0057 | 0.0316 | 0.0182 |
